± gives the standard deviation of the averaged measurements.
System: Saccharomyces cerevisiae
Assay: protein stability index of tFT-peptide fusion (C-terminal peptide) (PSI (0-1 scale)); higher = more stable (slower turnover)
Conditions: genetic background: wild type; temperature: 30 C
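Further: PSI is a weighted mean of sequencing reads over stability bins, variants kept only with over 10 reads, mCherry proximal and sfGFP distal, peptide attached via GGGS linker.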

## SGGWLAACYAVY
  protein stability index: 0.668 ± 0.032

## GVCGVSKGRRHR
  protein stability index: 0.701 ± 0.018

## KSSTLRKIKRGK
  protein stability index: 0.716 ± 0.03

## GVILPVVKARLA
  protein stability index: 0.472 ± 0.042

## VGAVRVAVGVGG
  protein stability index: 0.566 ± 0.0096

## EAVVWGTLLCGG
  protein stability index: 0.694 ± 0.01

## GGGGFGFGWSMV
  protein stability index: 0.709 ± 0.059

## LLPPPPSPPTPS
  protein stability index: 0.686 ± 0.035

## AVAETCEQAGRG
  protein stability index: 0.675 ± 0.066

## LTLQIWNLVSHL
  protein stability index: 0.599 ± 0.071

## HLRSALSVHPTL
  protein stability index: 0.707 ± 0.051

## SRNLRRLEIRRE
  protein stability index: 0.743 ± 0.027

## SEPCSASLSVSL
  protein stability index: 0.64 ± 0.045

## VFRSGGNQDIKV
  protein stability index: 0.648 ± 0.015

## RPRPKRCGPRSV
  protein stability index: 0.672 ± 0.052

## GGCGWRGDGGGA
  protein stability index: 0.679 ± 0.13

## GRGLRWSWGCGG
  protein stability index: 0.693 ± 0.064

## TILPWCLFLVAD
  protein stability index: 0.6 ± 0.0098

## GPTPAPSASRCF
  protein stability index: 0.6114 ± 0.0058

## GSFPPAAHFSPD
  protein stability index: 0.702 ± 0.043

## SPCPPPPAHPPR
  protein stability index: 0.728 ± 0.026

## LLPLPPLLRLPL
  protein stability index: 0.5803 ± 0.001

## ISFGSKLPHHLP
  protein stability index: 0.657 ± 0.11

## HILDDHVRISNA
  protein stability index: 0.685 ± 0.0096

## CLPTGMSKFPDF
  protein stability index: 0.683 ± 0.029

## SNQRQRETKREE
  protein stability index: 0.677 ± 0.039

## PTVKVLSWLAGH
  protein stability index: 0.703 ± 0.018

## GCSLTFAGLFCI
  protein stability index: 0.629 ± 0.01

## KKAKRKHLLGRA
  protein stability index: 0.66 ± 0.017

## DEVGVGASSNVF
  protein stability index: 0.619 ± 0.037

## DRSQKINKKKKK
  protein stability index: 0.75 ± 0.017

## SSCTRLSILVWF
  protein stability index: 0.52 ± 0.0056

## SAPPSPPLPPPC
  protein stability index: 0.677 ± 0.067

## YEQLSGHPPVVR
  protein stability index: 0.7236 ± 0.0014

## SPRLLPSPTRVA
  protein stability index: 0.643 ± 0.059

## PHARHPPDHRPF
  protein stability index: 0.678 ± 0.059

## TIIEHYMMINEK
  protein stability index: 0.692 ± 0.064

## SRRYLPHRPTSL
  protein stability index: 0.732 ± 0.071

## PPPPLAVSPTSP
  protein stability index: 0.716 ± 0.039

## VPSPFIPVSPTL
  protein stability index: 0.669 ± 0.012

## GLRRSTRSRLVF
  protein stability index: 0.593 ± 0.12

## TRNTNYNKKIKV
  protein stability index: 0.6801 ± 0.0022

## SPPLSLPFFPRP
  protein stability index: 0.641 ± 0.019

## NKKKGYRKKQNH
  protein stability index: 0.567 ± 0.032

## LGYSYHGVASRG
  protein stability index: 0.698 ± 0.013

## APSCRVPPLPPP
  protein stability index: 0.708 ± 0.046

## RWGGGKWWRGAE
  protein stability index: 0.659 ± 0.018

## FFSFWVGATTIE
  protein stability index: 0.70044 ± 0.00014

## DERESLFPLCSG
  protein stability index: 0.725 ± 0.015

## LLSLMCYCWFGV
  protein stability index: 0.5088 ± 0.0011

## PLGCGLTRCVAT
  protein stability index: 0.599 ± 0.0067

## QAKKSLTTKTSD
  protein stability index: 0.658 ± 0.024

## GVRLSPTACSSI
  protein stability index: 0.678 ± 0.071

## PPPLPPFPPAPP
  protein stability index: 0.642 ± 0.012

## PLLLSPPPLYTF
  protein stability index: 0.632 ± 0.028

## LVFGGRMRVYRP
  protein stability index: 0.678 ± 0.016

## KKIKKKKQTKRK
  protein stability index: 0.662 ± 0.039

## PVPCNYSPVIHL
  protein stability index: 0.688 ± 0.029

## HCYKRGSCTSLI
  protein stability index: 0.631 ± 0.087

## HRFPPDLYQHGP
  protein stability index: 0.645 ± 0.011

## LYKSEGVYTGFW
  protein stability index: 0.729 ± 0.12

## CSLSGAFLNQAR
  protein stability index: 0.6842 ± 0.0041

## ERRKQDERKRRV
  protein stability index: 0.7059 ± 0.00075

## GGGGGISGGRWG
  protein stability index: 0.667 ± 0.075

## LGCDDWIDWSRG
  protein stability index: 0.694 ± 0.054

## IQKNKQEVKTNI
  protein stability index: 0.685 ± 0.1

## LVGPPDPAHAVH
  protein stability index: 0.718 ± 0.031

## LWFWAVECGLGG
  protein stability index: 0.713 ± 0.32

## RKMNEEKEIRRQ
  protein stability index: 0.6569 ± 0.0065

## GLSCESLRLFFR
  protein stability index: 0.702 ± 0.015

## SPGRVSRGNASV
  protein stability index: 0.645 ± 0.017

## SLSSAALFHGPF
  protein stability index: 0.598 ± 0.065

## SFLIADLPSTPP
  protein stability index: 0.763 ± 0.13

## ISRLLMAMESRN
  protein stability index: 0.653 ± 0.024

## PPPPPPPPHPPP
  protein stability index: 0.559 ± 0.0068

## SSPPPCPLPTYP
  protein stability index: 0.624 ± 0.068

## SLGFMALFYLPL
  protein stability index: 0.649 ± 0.016

## SVLVQLLATTKS
  protein stability index: 0.675 ± 0.028

## CPDGSGWLARGC
  protein stability index: 0.661 ± 0.11

## PLLPPSSVPTPS
  protein stability index: 0.784 ± 0.1

## FGSDQFVCRLWS
  protein stability index: 0.729 ± 0.048

## EAGAKEWGAKQT
  protein stability index: 0.7006 ± 0.007

## CAPTFSYSLVLS
  protein stability index: 0.514 ± 0.036

## LIPCFSPLPSPF
  protein stability index: 0.721 ± 0.018

## EKEGPDRGECGL
  protein stability index: 0.682 ± 0.0089

## VVVGRWSVLSSV
  protein stability index: 0.522 ± 0.017

## FSSFCFFLPPLN
  protein stability index: 0.666 ± 0.034

## QERWGRGWGTRG
  protein stability index: 0.709 ± 0.072

## GSLVSKLGLGSG
  protein stability index: 0.69 ± 0.011

## PPSSPPPTIPAH
  protein stability index: 0.642 ± 0.029

## PPPAPPSPPPPP
  protein stability index: 0.65 ± 0.054

## RRGKIETKESKK
  protein stability index: 0.712 ± 0.044

## KKKNKKNKKKAE
  protein stability index: 0.6915 ± 0.0047

## IKNMWLACFGLY
  protein stability index: 0.667 ± 0.027

## PRRPAFPPPGLP
  protein stability index: 0.705 ± 0.072

## THSLCIKPRTVV
  protein stability index: 0.517 ± 0.0056

## SAKGGVLLIGLF
  protein stability index: 0.603 ± 0.2

## RFCQSHTSVSSF
  protein stability index: 0.652 ± 0.039

## PPHSIPSPSHPR
  protein stability index: 0.714 ± 0.052

## AKWAWPAIVGGC
  protein stability index: 0.722 ± 0.053

## VGGEGGLGVRPR
  protein stability index: 0.662 ± 0.033

Source: the supplement of paper PMC10724198
